From US20220275095A1 (SURROZEN OPERATING, published 2022)

Experiments:
[1] = molecular target: T1, mouse Fzd1 hinge region (mouse, UniProt O70421 222-271, limits assumed); assay: SPR; **** = 10 nM > KD
T1 construct: domain: hinge region; also called mFzd1L
T1 peptide (looked up): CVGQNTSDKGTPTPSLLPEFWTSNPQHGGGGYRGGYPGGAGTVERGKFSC
Experimental: (§1) Certain VL and VH clones from Table 1 were PCR amplified from the phage clone and sub-cloned into pcDNA3.1 based mammalian expression vectors (Invitrogen/ThermoFisher) of human kappa or lambda light chain and human IgG1 heavy chain, respectively. Candidate IgGs were purified using Protein A affinity resin. The candidate library was captured on an anti-FC lawn. The capture lawn was prepared by direct amine coupling goat anti-human IgG Fc (Southern Biotech #2048-01) at 8000 RU on a HC200M Carterra sensor chip (Carterra 4297). Capture levels were at least 600 RU for each candidate IgG. Binding to all target peptides was measured at 25° by injecting a concentration series of each peptide in 1×PBST+0.5 mg/mL BSA (TEKnova P1192, VWR V0332). All peptides were injected at 4.12 nM, 12.3 nM, 37 nM, 111 nM, 333 nM, and 1000 nM. Two blank injections were run between each peptide concentration series. Each injection started with a one minute baseline determination, followed by a five minute association phase where peptides were injected, and finished with a 10 minute dissociation phase. Binding data was analyzed using NextGenKIT (Carterra). Blank injections and reference locations were subtracted from all runs prior to fitting a 1:1 binding model to the data. […] Interactions with an Rₘₐₓ less than 15 RU or weaker than 5 μM were considered non-binders.

[2] = molecular target: T2, human Fzd1 hinge region (human); assay: SPR; **** = 10 nM > KD
T2 construct: also called hFzd1L
T2 peptide: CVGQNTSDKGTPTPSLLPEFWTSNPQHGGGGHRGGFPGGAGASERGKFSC
Experimental: as §1

[3] = molecular target: T3, human Fzd5 hinge region (human); assay: SPR
T3 construct: also called hFzd5L
T3 peptide: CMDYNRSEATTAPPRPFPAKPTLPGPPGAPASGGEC
Experimental: as §1

[4] = molecular target: T4, human Fzd2 hinge region (human); assay: SPR
T4 construct: also called hFzd2L
T4 peptide: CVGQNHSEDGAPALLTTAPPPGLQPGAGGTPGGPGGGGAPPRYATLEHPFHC
Experimental: as §1

[5] = molecular target: T5, mouse Fzd3 hinge region (mouse, UniProt Q61086 133-165, limits assumed); assay: SPR
T5 construct: domain: hinge region; also called mFzd3L
T5 peptide (looked up): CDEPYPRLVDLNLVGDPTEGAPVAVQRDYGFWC
Experimental: as §1

[6] = molecular target: T6, human Fzd4 hinge region (human); assay: SPR
T6 construct: also called hFzd4L
T6 peptide: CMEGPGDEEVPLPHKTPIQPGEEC
Experimental: as §1

[7] = molecular target: T7, human Fzd3 hinge region (human); assay: SPR
T7 construct: also called hFzd3L
T7 peptide: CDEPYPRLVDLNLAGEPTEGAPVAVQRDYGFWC
Experimental: as §1

[8] = molecular target: T8, mouse Fzd2 hinge region (mouse, UniProt Q9JIP6 155-206, limits assumed); assay: SPR
T8 construct: domain: hinge region; also called mFzd2L
Experimental: as §1

[9] = molecular target: T9, mouse Fzd10 hinge region (mouse, UniProt Q8BKG4 148-193, limits assumed); assay: SPR
T9 construct: domain: hinge region; also called mFzd10L
T9 peptide (looked up): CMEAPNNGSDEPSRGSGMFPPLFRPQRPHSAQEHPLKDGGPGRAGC
Experimental: as §1

[10] = molecular target: T10, human Fzd9 hinge region (human); assay: SPR
T10 construct: also called hFzd9L; hFzd9
T10 peptide: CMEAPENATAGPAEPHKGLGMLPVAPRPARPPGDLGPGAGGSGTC
Experimental: as §1

[11] = molecular target: T11, mouse Fzd6 hinge region (mouse, UniProt Q61089 129-161, limits assumed); assay: SPR
T11 construct: domain: hinge region; also called mFzd6L
T11 peptide (looked up): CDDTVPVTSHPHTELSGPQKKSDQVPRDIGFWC
Experimental: as §1

[12] = molecular target: T12, mouse Fzd9 hinge region (mouse, UniProt Q9R216 153-197, limits assumed); assay: SPR
T12 construct: domain: hinge region; also called mFzd9
T12 peptide (looked up): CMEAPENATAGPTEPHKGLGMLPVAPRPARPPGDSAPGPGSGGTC
Experimental: as §1

[13] = molecular target: T13, mouse Fzd4 hinge region (mouse, UniProt Q61088 158-181, limits assumed); assay: SPR
T13 construct: domain: hinge region; also called mFzd4L
T13 peptide (looked up): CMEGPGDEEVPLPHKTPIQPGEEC
Experimental: as §1

[14] = molecular target: T14, mouse Fzd5 hinge region (mouse, UniProt Q9EQD0 147-182, limits assumed); assay: SPR
T14 construct: domain: hinge region; also called mFzd5L
T14 peptide (looked up): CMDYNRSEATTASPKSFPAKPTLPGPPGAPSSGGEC
Experimental: as §1

[15] = molecular target: T15, human Fzd10 hinge region (human); assay: SPR
T15 construct: also called hFzd10L
T15 peptide: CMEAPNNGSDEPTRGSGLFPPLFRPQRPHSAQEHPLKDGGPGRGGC
Experimental: as §1

[16] = molecular target: T16, mouse Fzd7 hinge region (mouse, UniProt Q61090 160-208, limits assumed); assay: SPR
T16 construct: domain: hinge region; also called mFzd7L
T16 peptide (looked up): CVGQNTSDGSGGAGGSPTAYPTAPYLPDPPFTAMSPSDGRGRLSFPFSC
Experimental: as §1

[17] = molecular target: T17, mouse Fzd8 hinge region (mouse, UniProt Q61091 148-225, limits assumed); assay: SPR
T17 construct: domain: hinge region; also called mFzd8L; mFzd8
T17 sequence (peptide, looked up): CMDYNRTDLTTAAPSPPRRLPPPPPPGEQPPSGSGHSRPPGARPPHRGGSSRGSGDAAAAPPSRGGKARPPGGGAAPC
Experimental: as §1

[18] = molecular target: T18, human Fzd6 hinge region (human); assay: SPR
T18 construct: also called hFzd6L
T18 peptide: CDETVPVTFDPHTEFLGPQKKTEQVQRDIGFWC
Experimental: as §1

[19] = molecular target: Fzd1 CRD (UniProt Q9UP38 105-232); assay: BLI (Octet Red 96), biotinylated Fzd1 CRD on streptavidin biosensor
Experimental: Binding kinetics of monospecific Fzd binders to either (CRD) or the extracellular hinge region (hinge) was determined by bio-layer interferometry (BLI) using Octet Red 96 (PALL ForteBio, Fremont, Calif.) instruments at 30° C., 1000 rpm with streptavidin (SA) biosensors. N-terminal biotinylated Fzd1 or Fzd2 CRD and Fzd1 or Fzd 2 hinge proteins were captured on the SA biosensor. Following capture of biotinylated-Fzd1 or Fzd2, the SA biosensor with captured […] was dipped into wells containing the relevant antibodies at 7 different concentrations in running buffer plus a well with only running buffer as a reference channel. KD was determined by global fitting. As shown in FIGS. 4A-4H these antibody fusion proteins only bound to either Fzd1 or Fzd2 protein with the hinge region, and not to the CRD domains alone.

[20] = molecular target: T19, hFzd2L (human, UniProt Q14332 150-201); assay: phage ELISA, antigen on plate
T19 construct: ELISA antigen; also called human Fzd2 hinge region; Frizzled 2
Experimental: Detection of bound phage was determined calorimetrically by turnover of TMB substrate (Thermo Fisher Scientific, Waltham, Mass.) at […] by anti-M13-HRP antibody (GE Healthcare, Pittsburgh, Pa.). Clones were identified as binding to a Fzd receptor when the fold OD 450 nm over background was greater than a threshold level.

[21] = molecular target: T1, mouse Fzd1 hinge region; assay: SPR; *** = 100 nM > KD > 10 nM
Experimental: as §1

[22] = molecular target: T2, human Fzd1 hinge region; assay: SPR; *** = 100 nM > KD > 10 nM
Experimental: as §1

[23] = molecular target: T1, mouse Fzd1 hinge region; assay: SPR; ** = 1 uM > KD > 100 nM
Experimental: as §1

[24] = molecular target: T2, human Fzd1 hinge region; assay: SPR; ** = 1 uM > KD > 100 nM
Experimental: as §1

| binding result [3] | binding result [4] | binding result [5] | binding result [6] | binding result [7] | binding result [8] | binding result [9] | binding result [10] | binding result [11] | binding result [12] | binding result [13] | binding result [14] | binding result [15] | binding result [16] | binding result [17] | binding result [18] | binding result [19] | Binder | also measured |
| --- | --- | --- | --- | --- | --- | --- | --- | --- | --- | --- | --- | --- | --- | --- | --- | --- | --- | --- |
| no binding (tested: 5 uM) | no binding (tested: 5 uM) | no binding (tested: 5 uM) | no binding (tested: 5 uM) | no binding (tested: 5 uM) | no binding (tested: 5 uM) | no binding (tested: 5 uM) | no binding (tested: 5 uM) | no binding (tested: 5 uM) | no binding (tested: 5 uM) | no binding (tested: 5 uM) | no binding (tested: 5 uM) | no binding (tested: 5 uM) | no binding (tested: 5 uM) | no binding (tested: 5 uM) | no binding (tested: 5 uM) | – | 033S-E02 (antibody, V domains shown, human IgG1, human kappa or lambda light chain; also called 33SE2) VH: QVQLVQSGAEVKKPGSSVKVSCKASGGTFTSYAISWVRQAPGQGLEWMGMINPSGGRTTYAQKFQGRVTITADESTSTAYMKLSSLRSEDTAVYYCAIRTIFGVVIDYWGQGTLVTVSS VL: not shown | KD [21]: 10 to 100 nM; KD [22]: 10 to 100 nM |
| no binding (tested: 5 uM) | no binding (tested: 5 uM) | no binding (tested: 5 uM) | no binding (tested: 5 uM) | no binding (tested: 5 uM) | no binding (tested: 5 uM) | no binding (tested: 5 uM) | no binding (tested: 5 uM) | no binding (tested: 5 uM) | no binding (tested: 5 uM) | no binding (tested: 5 uM) | no binding (tested: 5 uM) | no binding (tested: 5 uM) | no binding (tested: 5 uM) | no binding (tested: 5 uM) | no binding (tested: 5 uM) | – | 033S-D02 (antibody, V domains shown, human IgG1, human kappa or lambda light chain; also called 33SD2) VH: QVQLVQSGAEVKKPGSSVKVSCKASGITFTSSAVHWVRQAPGQGLEWLGIINPSGGSTSYAQKFQGRVTITADESTSTAYMELSSLRSEDTAVYYCARRMVYAPYKDVWGKGTMVTVSS VL: not shown | KD [23]: 100 to 1000 nM; KD [24]: 100 to 1000 nM |
| – | – | – | – | – | – | – | – | – | – | – | – | – | – | – | – | no binding | 033S-D02 Fab (Fab, V domains shown, also called 33SD2) VH: QVQLVQSGAEVKKPGSSVKVSCKASGITFTSSAVHWVRQAPGQGLEWLGIINPSGGSTSYAQKFQGRVTITADESTSTAYMELSSLRSEDTAVYYCARRMVYAPYKDVWGKGTMVTVSS VL: not shown | – |

The remaining lines, values behind:

| Binder | binding result [3] | binding result [4] | binding result [5] | binding result [6] | binding result [7] | binding result [8] | binding result [9] | binding result [10] | binding result [11] | binding result [12] | binding result [13] | binding result [14] | binding result [15] | binding result [16] | binding result [17] | binding result [18] | binding result [19] | also measured |
| --- | --- | --- | --- | --- | --- | --- | --- | --- | --- | --- | --- | --- | --- | --- | --- | --- | --- | --- |
| 033S-B03 (antibody, V domains shown, human IgG1, human kappa or lambda light chain; also called 33SB3) VH: QVQLVQSGAEVKKPGSSVKVSCKASGYTFTGQYMHWVRQAPGQGLEWMGGIIPIFGTAHYPQKFQGRVTITADESTSTAYMELSSLRSEDTAVYYCARRSVAAGTPFTDYWGQGTLVTVSS VL: not shown | no binding (tested: 5 uM) | no binding (tested: 5 uM) | no binding (tested: 5 uM) | no binding (tested: 5 uM) | no binding (tested: 5 uM) | no binding (tested: 5 uM) | no binding (tested: 5 uM) | no binding (tested: 5 uM) | no binding (tested: 5 uM) | no binding (tested: 5 uM) | no binding (tested: 5 uM) | no binding (tested: 5 uM) | no binding (tested: 5 uM) | no binding (tested: 5 uM) | no binding (tested: 5 uM) | no binding (tested: 5 uM) | – | KD [1]: < 10 nM; KD [2]: < 10 nM |
| 033S-B03 Fab (Fab, V domains shown, also called 33SB3) VH: QVQLVQSGAEVKKPGSSVKVSCKASGYTFTGQYMHWVRQAPGQGLEWMGGIIPIFGTAHYPQKFQGRVTITADESTSTAYMELSSLRSEDTAVYYCARRSVAAGTPFTDYWGQGTLVTVSS VL: not shown | – | – | – | – | – | – | – | – | – | – | – | – | – | – | – | – | no binding | – |
| 031S-B02 (antibody, V domains shown, also called 31SB2) VH: EVQLLESGGGLVQPGGSLRLSCAASGFTFSSYWMSWVRQAPGKGLEWVSAIGGSGANAYYADSVKGRFTISRDNSKNTLYLQMNSLRAEDTAVYYCVRDTNWAFDLWGQGTMVTVSS VL: EIVMTQSPATLSVSPGERATLSCRASQSVSGSYLAWYQQKPGQAPRLLIYGASTRATGIPARFSGSGSGTEFTLTISSLQSEDFAVYYCQQYGSSPLTFGQGTKVEIK | – | – | – | – | – | – | – | – | – | – | – | – | – | – | – | – | – | binding result [20]: binds |
| 033S-E02 Fab (Fab, V domains shown, also called 33SE2) VH: QVQLVQSGAEVKKPGSSVKVSCKASGGTFTSYAISWVRQAPGQGLEWMGMINPSGGRTTYAQKFQGRVTITADESTSTAYMKLSSLRSEDTAVYYCAIRTIFGVVIDYWGQGTLVTVSS VL: not shown | – | – | – | – | – | – | – | – | – | – | – | – | – | – | – | – | no binding | – |
